Laboratory results from the DeepSol protein solubility set.

Test: soluble on expression in E. coli; label from the status in PepcDB or PDB records

Sequence	soluble on expression in E. coli
MAHHHHHHMYSFSPVTPGKTAASPANDLVSSSSNSNGELVDDIKESLDRIEKLLNRGQQLLYGDGAADGKKAYSEGAAVTPDGEPADADTVSIPTARHVDANCGSYQLPSDTHVGLPLRGTGTSAAANASLYPQSTSQHSASHFQRNSEKLYQRLSGESNHRYPSQNGSNRSSLHARPHANRASVGSNRLPPGFKDKVLVSVRGRRIVQIQKEGGIVPNFEEGLDAHDTPQNFTIEELKARIHRELEEYRRLGPLMNRYKSFRRRQCVTVAKRAPMMKIASRTFTAATTAALGSKLVKHIPAPASASTPQGAANRFGVHAAAATTKTGPHAAPASRQAAKSTNGTPARSTLRNSHERGRVETRRADRGSHPPMMAPPGNSTYSAYYNPLQMSGGSRNASCELSLKQTAGCSDVVPQHARNVSKSKPRTTEPQDDMEEASLPDSMEDCDASQPYVAPLDLSVIKK	not soluble
MTTDAAVAELLALGELTVRGRIRDASNAALYCTVTHEGREAACVYKPVAGERPLWDFPDGTLAQREVAAYEVSEATGWGLVPPTVLRDGPYGEGMVQLWIETVPETELLALVDEEEPGPGWKGIALAEVGEGRTALLVHADDERLRRLAVLDAVINNADRKGGHLLPAAGERLYGIDHGVTFNAENKLRTLLWGWAGDALTGEALAVLDALRRALKDGGTLALRLAALITPAELDATRARVDALLASGKHPEPGGEWPAIPWPPVLEHHHHHH	not soluble
ARPAFVNKLWSMVNDKSNEKFIHWSTSGESIVVPNRERFVQEVLPKYFKHSNFASFVRQLNMYGWHKVQDVKSGSMLSNNDSRWEFENERHA	soluble
MEKRITTPLTDEVVKSLRAGDKVLITGYIYTARDAAHKRMVEAIQRGEKPPIDLKGQIIYYVGPTPPKPGQVIGSAGPTTAIRMDKYVEPLLKLGLKGMIGKGYRSPQVKELLKKYKAVYFAAVGGVATLLQKHIKSSELIAYEDLGTEAIRRLYVEDFPVIVANDAFGGDVFEEGRKKYAKIDV	soluble
MKLYVLIIAIILSIGTARTQNIDSLLMQREDTTQFIRSDSLVLQFLEYSNIPITDNNKVKLIKSGREKFEDLFEAIRGAKHHIHLEYFNFRNDSIANALFDLLGEKVKEGVKVRAMFDAFGNWSNNKPLKKRHLKAIREKGIEIVKFDPFKFPYINHAAHRDHRKIAVIDGKIGYTGGMNIADYYINGLPKIGTWRDMHIRIEGDAVNILQEIFLDIWNKTTKQNIVGEEYFPNHPERADSCNTVISIVDRTPKRNSRMLSHTYAMSIYAAQHDVRIVNPYFVPTSSIRKALKRALNRGTKVEIMISSKSDIPFTPDASLYAVQKLMKKGAMIYLYNGGFHHSKIMMVDDLFCTVGTANLNSRSLRYDYETNAFIFDKDITQQLNDVFEADMLHCTRLTPEMWKQKSAWKKFKCWFANLFTPFL	not soluble
IQQFNYGVRLVMSDNMQKILEYPNKTLSLGEKYYTGKTIGEIWGYKTIGIAQTQEEMDKHLANGGKPNWGSAWGAGDIMYANIDGKDGVNSGANTVNDHGDLKIIGNSTPRYNFGLTLDGSWKGLDFSLFIQGVMKRDYMLDGPYFWGANGGMWQSCVFKEHLDYWRPEGDPLGANTNAYYPKPYFSSNKNQKTQSGYLQNAAYCRLKNAQIGYTLPKAWTKKAAMESVRVYVSGDNLLTISGISDIFDPETLGGDWGPGKLYPLQRTISIGLNVNF	not soluble
MGSDKIHHHHHHMITVNDLSVQFGKRILFQDVNLTFTPGNCYGIIGANGAGKSTMLRVISKQLDPTRGTVTLGPGERLSVLSQDHFAFDENTVMDTVLMGHSVLWAIMEEKNALYAKPDFSDEDGTRVAELEDKFAEMEGWNAESDAAMLLSGLGIKEDLHYMLMKDLSGKQKVRVLLARALYGKPDNLLLDEPTNDLDLETVSWLENYLSNFENTVLVVSHDRHFLDSVCTHTVDIDFGKVQQFSGNYSFWYESSQLALRQQQQQNKKAEEKRKELEEFIRRFSANVAKSKQTTSRKKMLEKLNIEEITPSSRRYPGILFTPGREPGNKILEVKGLTKSIEGQLLFRDLNFNVEKDDKIVFISRDPRAMTALFSIINGEMTPDEGTYEWGQTITTAYLPLDNSGYFNTDLNLVEWLSQFAKDTNEVFLKGFLGRMLFSGEEILKKASVLSGGEKMRCMISKMMMLDANTLVLDTPTNHLDLESIQAFNNTLKTYRGNVLFASHDHEFIQTVANRIIELTPNGIIDKIMDYDDYITDPIVAEMRQKLYGQ	not soluble
MATGSGSLIWFRKGLRVHDNPALEYASKGSEFMYPVFVIDPHYMESDPSAFSPGSSRAGVNRIRFLLESLKDLDSSLKKLGSRLLVFKGEPGEVLVRCLQEWKVKRLCFEYDTDPYYQALDVKVKDYASSTGVEVFSPVSHTLFNPAHIIEKNGGKPPLSYQSFLKVAGEPSCAKSELVMSYSSLPPIGDIGNLGISEVPSLEELGYKDDEQADWTPFRGGESEALKRLTKSISDKAWVANFEKPKGDPSAFLKPATTVMSPYLKFGCLSSRYFYQCLQNIYKDVKKHTSPPVSLLGQLLWREFFYTTAFGTPNFDKMKGNRICKQIPWNEDHAMLAAWRDGKTGYPWIDAIMVQLLKWGWMHHLARHCVACFLTRGDLFIHWEQGRDVFERLLIDSDWAINNGNWMWLSCSSFFYQFNRIYSPISFGKKYDPDGKYIRHFLPVLKDMPKQYIYEPWTAPLSVQTKANCIVGKDYPKPMVLHDSASKECKRKMGEAYALNKKMDGKVDEENLRDLRRKLQKDEHEESKIRNQRPKLK	soluble
MAHHHHHHMDTNDYENLRFYNYIPVNKELKKSCIPCPDTEDYEAKLNKEFDEELTKVFQGNILDQINAKDINADLKRDLKKKLDILSKKTDKAVVQLIKQKINENKNKENITNTNDDEKEKETMTLNFDKKGDKNFGHVLYKTLDKLDVMDDESD	soluble
MNRIEHYHDWLRDAHAMEKQAESMLESMASRIDNYPELRARIEQHLSETKNQIVQLETILDRNDISRSVIKDSMSKMAALGQSIGGIFPSDEIVKGSIGGYVFEQFEITCYTSLLAAAKNAGDTVSIPIIEAILNEEKQMADWLIQHIPQTTEKFLIRSETDGVEAKK	not soluble
MAMNNILGLFAHSPLKPLQKHSEKVTECSDLLIPFFQTTFSKNWEQAEEKRLEISQCEREADSLKREIRLKLPRGLFLPIDRTDLLELVTQQDKLANYAKDIAGRMIGRQFGIPEEMQEEFLHYVKRSLDAIHQAHRVIEEMDKLLETGFKGRELKLVNDMIQELDSIEDDTDQMQIKLRKMLYTIESRYNPIDVMFLYKIIEWVGVLADQAQRVGSRIELMLARS	not soluble
MLVPSANRWVPKFKSKKTEKKLAPDGKTELLDKDEVERKMKSLLNKLTLEMFDAISSEILAIANISVWETNGETLKAVIEQIFLKACDEPHWSSMYAQLCGKVVKELNPDITDETNEGKTGPKLVLHYLVARCHAEFDKGWTDKLPTNEDGTPLEPEMMSEEYYAAASAKRRGLGLVRFIGFLYRLNLLTGKMMFECFRRLMKDLTDSPSEETLESVVELLNTVGEQFETDSFRTGQATLEGSQLLDSLFGILDNIIQTAKISSRIKFKLIDIKELRHDKNWNS	soluble
MKFLLAVFLLAVCSLGESKKPKAQKVIYVQKVVPPQKQLSEYDLCKEQCRIESETQSNKERVELLKQEIDRAEQLLAEHNKHVDAPEIAPETYMEAGQVPPMRKASRYDHLKMAANKIVESTSELKNAVTGGGDN	not soluble
MGSDKIHHHHHHMSGTLITSDVDVDAHGKQQAYLRVPHSVHRSAYGWIPVPIAVIRNGDGPTLVISAGVHGDEYEGQIAVATLIRTLDATDIRGRLILLPMVNVPAAEAGCRTSPIDAGNLNRLYPGDPKGMPSQMIAHFHEEVILPLADYAVDLHSGGSSLIYPATVMRGPSHSPQEEDGLATLVDAFDLPYTWVFQGGGGRDSTARTAMGAANRKGVINVMAELGGAGCVTPDVLHRTERGLRRILHAVGMLPGYVPDGAQGTRAVSVQGSVYAFETGVFEPLKSIGGDVVKGEAVAHIHHPETPGKAPDVVLSPHAGMVLAMRAMAQVRRGDALYQIAADAG	not soluble
MLKYRDEKDISACGIFGIMDRKGRRFNGKLVIEAMSQMKVRGNGLGAGFAVYGLYKKFKEYYAFHVMIYDKDGREKLEKFLSTNFDIVYVDEIPVNDKAKVIDPPKFMRYFVAPRKKGTEKVLNDDDFVVKKVMYINRAIPGVYVISSGKNMGVFKGVGFPEDIADYFMIEEYKGYIWTAHTRFPTNTPGWWGGAHPFSILDWSVVHNGEISSYGTNKRYLEMYGYYSTLQTDTEVITYIFDLLVRRQGLPIEVVSKILAPPMWEEIDRMPEKEKKFYKALRMVYSPILLNGPWAIIVARHGEMIGLTDRIRLRPLTVAEKKSFLIISSEEAPIRYLFRDVDRIYTPYGGELVVGKLEEDIKKFVGESQ	not soluble
MNEIKNLKQYSKAAERFEGAHLLCPGCAHGMIVREVLNATDDPLILSSATGCLEVSTAVYPYTSWDVPWIHIGFENSSTAVAGAEAMYKALERKGKLYSEKKPKFVAFGGDGSTYDIGFQYISGCFERGHNMTYICLDNEVYANTGGQRSGSTPIGASTTTTPAGRVSYGKKDKKKDILQIMAAHGAPYVAQVAPNKWKDMAKKLKMALETEGPTFINAMSACTTEWKFESNLTVEVSDLAVDSLVFPLYEIINGTELNITYRPKNIVPVRDYLAAQGRFKHLFKKENEHIIEQWQKEVDARWVYLQKREEARV	not soluble
MGSDKIHHHHHHMIPLHTSMRGLRCFCVAAECLSFKETAKRLYLTPSAVSHQIKQLEESLNQSLFIRQTRAVTLTEVGARFYQAIEPVMQQLVNTVSEFNQSDRMLEVSISMPEFFASELFMPKLIGWSSKYPNINLKLETIKSRSDMIKHTDASIMLSGKQQTNADVYDLFPITYIPACNAQLHAELSSQGFKALTQVPLILHKARPYAWHQWAENVGFDAFQPKQIIQLDSMFSVARAAEQGLGIALIPLPISQAWFDNGTLLSLFPHPLFSHDRYYLIRHTNEQQRPEVQLLIDWILKSFHDESH	not soluble
MIEAVKPKVLATRLIPNVAPELAGQLGLAQYQRSIGMITCNIDDSTYVALDEATKKADVAVVYAKSFYAGAAHASGPRSGEVIGILAAANPADVRAGIDACIAYLENEAFFYSHDGGKTAWFPHTISSTGSYLSQIAGIPEGEPLAYLIAPPLEAIYGIDAALKAADVAMKVLYGPPTETNFGGALLTGTQSACRAACEDFQRAVIDVAENGMKY	not soluble
YSSAYKEFIKKSMKYRTEEDTFTDANGLAGCRYWSPKNYEKIARMMAQPKYKPAFAYLFFFRSYVNDQQITSCVFQVQRDGMPESILVQPVLRDESSVTLE	not soluble
MGSDKIHHHHHHMDSLSSILKSVRLQGSVYFNACFASPWGLDLDQNQRAYFHLIIRGACYLQLGDKKEQLQGGDIIILPHGTAHQLFDDPSSVRVNATGVVPGLIDGINPFEGVGHSQDIDILCGYFNFNNSTPSYFLNALPDVIHLTQEHRTHFSFLDNALSFITQETKMKNLGREILIDRVTELLFVQIMRVYININGNEENIFSALSDRTLSEALQLMHTESDKNWTVESLAKAIGMSRSRFSEHFHNYIGETPMRYLHTCRMEVAKQKIEETESTLNIISEEVGYASDSAFKKAFKKFFGNTPSTFRQKNDK	not soluble
MGSSHHHHHHSSGLVPRGSHMKLNRVVVTGYGVTSPIGNTPEEFWNSLATGKIGIGGITKFDHSDFDVHNAAEIQDFPFDKYFVKKDTNRFDNYSLYALYAAQEAVNHANLDVEALNRDRFGVIVASGIGGIKEIEDQVLRLHEKGPKRVKPMTLPKALPNMASGNVAMRFGANGVCKSINTACSSSNDAIGDAFRSIKFGFQDVMLVGGTEASITPFAIAGFQALTALSTTEDPTRASIPFDKDRNGFVMGEGSGMLVLESLEHAEKRGATILAEVVGYGNTCDAYHMTSPHPEGQGAIKAIKLALEEAEISPEQVAYVNAAGTSTPANEKGESGAIVAVLGKEVPVSSTKSFTGHLLGAAGAVEAIVTIEAMRHNFVPMTAGTSEVSDYIEANVVYAQGLEKEIPYAISNTFGFGGHNAVLAFKRWENR	soluble
